The chains are these.
B1: DR449(DR237-DR233) (bispecific antibody)
chain: QVQLQESGGGSVQAGGSLRLSCAASGYTYSMYCMGWFRQAPGKEREGVAQINSDGSTSYADSVKGRFTISKDNAKNTLYLQMNSLKPEDTAMYYCAADSRVYGGSWYERLCGPYTYEYNYWGQGTQVTVSSGGGSQVQLQESGGGSVQAGGSLRLSCTASGFTFDDSDMGWYRQAPGNECELVSTISSDGSTYYADSVKGRFTISQDNAKNTVYLQMNSLKPEDTAVYYCAAEPRGYYSNYGGRRECNYWGQGTQVTVSSASHHHHHH
notes: Anti-hIL10Ra/hIL2Rg dual VHH with ASH6 handle; also called F3
B2: DR474(DR241-DR234) (bispecific antibody)
chain: QVQLQESGGGSVQAGGSLRLSCAASGYSNCSYDMTWYRQAPGKEREFVSAIHSDGSTRYADSVKGRFFISQDNAKNTVYLQMNSLKPEDTAMYYCKTDPLHCRAHGGSWYSVRANYWGQGTQVTVSSGGGSQVQLQESGGGSVQAGGSLRLSCVASGYTFSSYCMGWFRQAPGKEREGVAALGGGSTYYADSVKGRFTISQDNAKNTLYLQMNSLKPEDTAMYYCAAAWVACLEFGGSWYDLARYKHWGQGTQVTVSSASHHHHHH
notes: Anti-hIL10Ra/hIL2Rg dual VHH with ASH6 handle; also called H9
B3: DR466(DR240-DR232) (bispecific antibody)
chain: QVQLQESGGGSVQAGGSLRLSCGASGYTYSSYCMGWFRQVPGKEREGVAVIDSDGSTSYADSVKGRFTISKDNGKNTLYLQMNSLKPEDTAMYYCAADLGHYRPPCGVLYLGMDYWGKGTQVTVSSGGGSQVQLQESGGGSVQAGGSLRLSCVASGYTSCMGWFRQAPGKEREAVATIYTRGRSIYYADSVKGRFTISQDNAKNTLYLQMNSLKPEDIAMYSCAAGGYSWSAGCEFNYWGQGTQVTVSSASHHHHHH
notes: Anti-hIL10Ra/hIL2Rg dual VHH with ASH6 handle; also called H7
B4: DR392(DR229-DR236) (bispecific antibody)
chain: QVQLQESGGGLVQPGGSLRLSCTASGFSFSSYPMTWARQAPGKGLEWVSTIASDGGSTAYAASVEGRFTISRDNAKSTLYLQLNSLKTEDTAMYYCTKGYGDGTPAPGQGTQVTVSSGGGSQVQLQESGGGSVQAGGSLRLSCAASRFTYSSYCMGWFRQAPGKEREGVASIDSDGSTSYTDSVKGRFTISKDNAKNTLYLQMNSLKPEDTAMYYCALDLMSTVVPGFCGFLLSAGMDYWGKGTQVTVSSASHHHHHH
notes: Anti-hIL10Ra/hIL2Rg dual VHH with ASH6 handle; also called A7
B5: DR437(DR235-DR233) (bispecific antibody)
chain: QVQLQESGGGSVQAGGSLRLSCAASRYLYSIDYMAWFRQSPGKEREPVAVIYTASGATFYPDSVKGRFTISQDNAKMTVYLQMNSLKSEDTAMYYCAAVRKTDSYLFDAQSFTYWGQGTQVTVSSGGGSQVQLQESGGGSVQAGGSLRLSCTASGFTFDDSDMGWYRQAPGNECELVSTISSDGSTYYADSVKGRFTISQDNAKNTVYLQMNSLKPEDTAVYYCAAEPRGYYSNYGGRRECNYWGQGTQVTVSSASHHHHHH
notes: Anti-hIL10Ra/hIL2Rg dual VHH with ASH6 handle; also called D6
B6: DR442(DR236-DR232) (bispecific antibody)
chain: QVQLQESGGGSVQAGGSLRLSCAASRFTYSSYCMGWFRQAPGKEREGVASIDSDGSTSYTDSVKGRFTISKDNAKNTLYLQMNSLKPEDTAMYYCALDLMSTVVPGFCGFLLSAGMDYWGKGTQVTVSSGGGSQVQLQESGGGSVQAGGSLRLSCVASGYTSCMGWFRQAPGKEREAVATIYTRGRSIYYADSVKGRFTISQDNAKNTLYLQMNSLKPEDIAMYSCAAGGYSWSAGCEFNYWGQGTQVTVSSASHHHHHH
notes: Anti-hIL10Ra/hIL2Rg dual VHH with ASH6 handle; also called F7
B7: DR444(DR236-DR234) (bispecific antibody)
chain: QVQLQESGGGSVQAGGSLRLSCAASRFTYSSYCMGWFRQAPGKEREGVASIDSDGSTSYTDSVKGRFTISKDNAKNTLYLQMNSLKPEDTAMYYCALDLMSTVVPGFCGFLLSAGMDYWGKGTQVTVSSGGGSQVQLQESGGGSVQAGGSLRLSCVASGYTFSSYCMGWFRQAPGKEREGVAALGGGSTYYADSVKGRFTISQDNAKNTLYLQMNSLKPEDTAMYYCAAAWVACLEFGGSWYDLARYKHWGQGTQVTVSSASHHHHHH
notes: Anti-hIL10Ra/hIL2Rg dual VHH with ASH6 handle; also called E8
B8: DR441(DR236-DR231) (bispecific antibody)
chain: QVQLQESGGGSVQAGGSLRLSCAASRFTYSSYCMGWFRQAPGKEREGVASIDSDGSTSYTDSVKGRFTISKDNAKNTLYLQMNSLKPEDTAMYYCALDLMSTVVPGFCGFLLSAGMDYWGKGTQVTVSSGGGSQVQLQESGGGSVQAGGSLRLSCTASGFTFDDREMNWYRQAPGNECELVSTISSDGSTYYADSVKGRFTISQDNAKNTVYLQMDSVKPEDTAVYYCAADFMIAIQAPGAGCWGQGTQVTVSSASHHHHHH
notes: Anti-hIL10Ra/hIL2Rg dual VHH with ASH6 handle; also called F1
B9: DR438(DR235-DR234) (bispecific antibody)
chain: QVQLQESGGGSVQAGGSLRLSCAASRYLYSIDYMAWFRQSPGKEREPVAVIYTASGATFYPDSVKGRFTISQDNAKMTVYLQMNSLKSEDTAMYYCAAVRKTDSYLFDAQSFTYWGQGTQVTVSSGGGSQVQLQESGGGSVQAGGSLRLSCVASGYTFSSYCMGWFRQAPGKEREGVAALGGGSTYYADSVKGRFTISQDNAKNTLYLQMNSLKPEDTAMYYCAAAWVACLEFGGSWYDLARYKHWGQGTQVTVSSASHHHHHH
notes: Anti-hIL10Ra/hIL2Rg dual VHH with ASH6 handle; also called D12

A word on the Kd: it is the free concentration of one partner at which half of the binding sites on the other are occupied at equilibrium, for simple one-to-one binding. Read a low Kd as tighter binding. What is called koff is the first-order rate constant of dissociation. Read a low koff as slow dissociation. What is called kon is the second-order rate constant of association. Low values mean slow association, high ones fast association.

For one assay, the target named is T1, hIL2Rg-Fc (SinoBiological cat#10555) (human, UniProt P31785 23-254, limits assumed).
T1 construct: Bought Fc fusion (SinoBiological cat#10555); P31785 is printed for hCD132 in the background; also called human IL2Rg-Fc; not shown: Fc of the bought fusion protein
T1 sequence (looked up): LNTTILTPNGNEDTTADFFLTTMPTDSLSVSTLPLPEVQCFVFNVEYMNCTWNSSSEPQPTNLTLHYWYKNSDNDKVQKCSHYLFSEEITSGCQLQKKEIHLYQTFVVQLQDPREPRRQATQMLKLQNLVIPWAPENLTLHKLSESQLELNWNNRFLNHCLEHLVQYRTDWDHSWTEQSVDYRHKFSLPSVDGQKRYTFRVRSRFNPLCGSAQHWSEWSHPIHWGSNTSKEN
The experiment in a line: SPR (Biacore T200); ratio experimental/calculated Rmax.
B1: the “Surface Activity” value was 2%.

On to B2, for which the “Surface Activity” value is 6%.

On to B3, for which the “Surface Activity” value was 6%.

With B4, the “Surface Activity” value is 4%.

For the molecule B5, the “Surface Activity” value was 3%.

For B6, the “Surface Activity” value is 5%.

For B7, the “Surface Activity” value was 5%.

On to B8, for which the “Surface Activity” value is 4%.

With B9, the “Surface Activity” value was 5%.

The target in the next assay is T2, cIL2Rg-Fc (lot#P210115SV5) (cynomolgus, UniProt A0A2K5VGJ6 23-262).
T2 construct: Named only by lot number; also called cynomolgus IL2Rg-Fc; not shown: Fc of the fusion protein
T2 sequence: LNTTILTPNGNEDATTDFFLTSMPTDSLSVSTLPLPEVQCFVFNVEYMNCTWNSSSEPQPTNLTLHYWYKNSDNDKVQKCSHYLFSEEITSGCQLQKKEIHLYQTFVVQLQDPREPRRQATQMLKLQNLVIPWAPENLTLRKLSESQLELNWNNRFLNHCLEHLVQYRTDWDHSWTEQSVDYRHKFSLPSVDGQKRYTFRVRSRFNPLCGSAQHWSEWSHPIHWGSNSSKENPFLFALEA
The assay is described as above.
As to B1, the “Surface Activity” value is 1%.

As for B2, the “Surface Activity” value was 2%.

With B3, the “Surface Activity” value is 9%.

Take B4: the “Surface Activity” value was 1%.

Regarding B5, the “Surface Activity” value is 1%.

Consider B6, for which the “Surface Activity” value is 7%.

Turning to B7, the “Surface Activity” value is 2%.

Regarding B8, the “Surface Activity” value is 1%.

For the molecule B9, the “Surface Activity” value was 1%.

The next assay deals with T1, hIL2Rg-Fc (SinoBiological cat#10555). Description: SPR (Biacore T200), Fc-fused ligand captured on chip, dual VHH as analyte, 1:1 Langmuir fit. As to the method:
(§1) All experiments were conducted in 10 mM Hepes, 150 mM NaCl, 0.05% (v/v) Polysorbate 20 (PS20) and 3 mM EDTA (HBS-EP+ buffer) on a Biacore T200 instrument equipped with Protein A or CAP biotin chips (Cytiva). For experiments on Protein A chips, Fc-fused ligands were flowed at 5 μl/min for variable time ranging from 18 to 300 seconds, reaching the capture loads listed in the tables below. Following ligand capture, injections of a 2-fold dilution series of analyte typically comprising at least five concentrations between 1 μM and 1 nM were performed in either high performance or single cycle kinetics mode. Surface regeneration was achieved by flowing 10 mM glycine-HCl, pH 1.5 (60 seconds, […]). Buffer-subtracted sensograms were processed with Biacore T200 Evaluation Software and globally fit with a 1:1 Langmuir binding model (bulk shift set to zero) to extract kinetics and affinity constants (kₐ, kd, KD). RMAX<100 RU indicates surface density compatible with kinetics analysis. Experiments on CAP chips were performed as described above with an additional capture step of Biotin CAPture reagent (10 seconds, 40 uL/min) performed prior to capture of biotinylated ligands. Calculated Rmax were generated using the equation Rmax=Load (RU) x valency of ligand x (Molecular weight of analyte/Molecular weight of ligand. Surface activity was defined as the ratio experimental/calculated Rmax. The results of these experiments are provided in below for sample information and experimental results.
On the technique in general: Surface plasmon resonance follows binding to a sensor surface in real time, without labels.
Molecule B1 came in with a dissociation constant (Kd) of 30.4 nM, a koff of 0.0065 s⁻¹ and a kon of 220000 M⁻¹ s⁻¹.

On to B2, for which the Kd is 3.2 nM, the dissociation rate constant (koff) was found to be 0.00099 s⁻¹ and the kon came out at 310000 M⁻¹ s⁻¹.

Molecule B3 returned a Kd of 20.8 nM, a koff of 0.026 s⁻¹ and a kon of 1.2e+06 M⁻¹ s⁻¹.

In the case of B4, the Kd is 3.6 nM, the koff amounted to 0.0062 s⁻¹ and the kon was found to be 1.7e+06 M⁻¹ s⁻¹.

B5 gave a Kd of 27.5 nM, a koff of 0.0051 s⁻¹ and a kon of 190000 M⁻¹ s⁻¹.

Consider B6, for which the Kd was found to be 21.5 nM, the koff came out at 0.042 s⁻¹ and the kon was found to be 2e+06 M⁻¹ s⁻¹.

In turn, B7 yielded a Kd of 6.9 nM, a koff of 0.0026 s⁻¹ and a kon of 380000 M⁻¹ s⁻¹.

In the case of B8, the Kd is 11.1 nM, the dissociation rate constant (koff) is 0.0053 s⁻¹ and the kon is 470000 M⁻¹ s⁻¹.

For the molecule B9, the dissociation constant Kd worked out at 2.7 nM, the koff worked out at 0.001 s⁻¹ and the kon turned out to be 390000 M⁻¹ s⁻¹.

Another assay has as its target T2, cIL2Rg-Fc (lot#P210115SV5). The description is as above. The method, then:
as §1
B1: the Kd amounted to 22.6 nM, the koff came out at 0.0048 s⁻¹ and the kon came out at 210000 M⁻¹ s⁻¹.

Take B2: the Kd worked out at 2.9 nM, the koff was 0.00093 s⁻¹ and the kon stood at 330000 M⁻¹ s⁻¹.

B3 returned a Kd of 49.9 nM, a koff of 0.0037 s⁻¹ and a kon of 75000 M⁻¹ s⁻¹.

B4 registered a Kd of 2.4 nM, a koff of 0.004 s⁻¹ and a kon of 1.6e+06 M⁻¹ s⁻¹.

Take B5: the dissociation constant Kd worked out at 7.8 nM, the off-rate constant (koff) was determined as 0.0022 s⁻¹ and the kon is 290000 M⁻¹ s⁻¹.

B6: the Kd is 41.3 nM, the koff was determined as 0.0033 s⁻¹ and the kon came to 79000 M⁻¹ s⁻¹.

Molecule B7 came in with a Kd of 5.3 nM, an off-rate constant (koff) of 0.00077 s⁻¹ and an on-rate constant (kon) of 150000 M⁻¹ s⁻¹.

Regarding B8, binding was characterised by a dissociation constant (Kd) of 8.3 nM, the koff came to 0.0028 s⁻¹ and the on-rate constant (kon) was determined as 340000 M⁻¹ s⁻¹.

Take B9: binding was characterised by a dissociation constant (Kd) of 2.2 nM, the koff came to 0.0012 s⁻¹ and the kon came out at 560000 M⁻¹ s⁻¹.

The values above are taken from patent US20250163162A1 (SYNTHEKINE, published 2025).
